B1: NCK2 (parent)
chain: YVERKNSLKKGSLVKNLKDTLGLG
B2: NECAB1 (parent)
chain: FSPNSPQFNVSGPGLLEEDNQWMT

Variants of: B1
Test: protein stability index of a GFP-peptide fusion (GPS, HEK-293T) (PSI 1-6); higher = more stable
Settings: c terminus: a fixed tail appended
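Further: lentivirally expressed fusions sorted by FACS into six bins by GFP to DsRed ratio, PSI derived from sequencing read proportions per bin multiplied by bin number.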

Protein stability index: each site, then its substitutions
S7: N 2.07, I 1.86, Q 2.15, C 2.22, G 1.99, R 2.22, K 2.84, H 2.02, W 3.27, T 2.16, L 2.43, V 1.94, E 2.9, M 1.88, P 1.82, D 2.57, Y 1.74, F 2.66, A 2.29
L8: E 2.96, S 1.99, F 2.33, Q 2.88, W 1.89, K 2.47, P 2.8, T 2.58, D 2.92, R 2.09, V 2.16, C 2.41, Y 2.14, G 3.27, N 2.55, M 2.57, H 3.11, I 2.27, A 2.42
K5: W 2.57, N 2.4, T 2.02, D 2.26, A 2.12, M 1.79, E 2.92, C 1.75, P 1.89, L 1.51, H 2.13, F 2.58, I 1.99, G 2.34, V 2.2, R 2.52, Q 2.39, Y 2.84, S 2.24
K9: T 2.17, A 2.15, L 3.07, G 2.39, Q 2.32, P 2.05, D 2.37, I 2.51, N 2.32, E 2.59, F 3.15, C 1.94, S 2.84, H 2.1, R 2.54, M 1.92
E3: N 2.04, K 2.23, M 2.11, P 1.65, I 2.1, V 1.9, G 1.41, S 2.23, Y 1.63, Q 1.96, H 1.72, L 2.07, D 1.89, F 2.01, C 1.83, R 2.52, W 1.96, T 1.78, A 1.66
V2: P 3.81, W 2.49, Y 3.01, R 3.41, C 2.47, A 3.09, S 2.94, Q 3.39, F 2.44, M 2.81, T 3.44, K 3.67, E 4.17, D 3.38, L 2.71, G 3.19, N 3.59, H 2.66, I 2.84
R4: N 2.48, Q 2.2, W 1.57, P 2.2, C 1.83, H 2.6, G 2.19, L 1.57, S 2.26, I 1.81, E 2.42, Y 1.33, A 2.23, K 2.46, M 1.62, F 1.52, D 2.67, V 1.78, T 1.78
Y1: W 2.29, F 1.81, L 3.28, D 4.13, I 3.03, A 3.59, S 3.3, E 4.06, K 3.86, N 3.71, P 3.8, Q 4.01, T 3.65, H 4.01, R 3.18, G 3.92, V 3.41, C 3.41, M 3.64
N6: M 2.29, H 2.61, R 2.25, T 1.94, Y 1.64, G 2.38, A 2.24, D 2.74, Q 2.53, F 1.58, L 1.1, V 1.58, P 2.28, I 2.39, S 2.1, E 2.85, W 2.32, C 1.73, K 2.67

Variants of: B2
Test: as above
Settings: c terminus: a fixed tail appended

Protein stability index of substitutions, site by site:
E17: M 2.54, C 2.04, H 2.72, S 2.98, Q 3.13, G 2.49, V 2.33, Y 2.46, R 2.86, F 1.69, K 1.97, A 2.4, T 2.36, P 2.58, D 2.74, L 2.29, N 2.33, I 2.53, W 2.82
D19: E 2.78, S 2.33, M 2.57, R 1.94, K 2.18, W 2.02, N 2.57, G 2.33, H 2.79, P 2.03, C 2.72, Q 2.5, Y 2.44, I 2.55, V 2.1, A 2.11, F 2.12, T 2.1, L 2.3
L16: T 3.53, V 3.18, K 2.94, S 3.23, I 2.91, R 3.12, W 2.25, H 3.98, Q 3.54, N 2.97, G 2.73, F 2.42, P 3.52, M 2.66, Y 2.73
W22: C 4.1, P 4.21, G 3.85, K 3.54, Y 3.49, S 4.03, V 3.79, A 3.96, N 4.07, L 3.71, Q 4.03, M 3.39, I 3.67, F 3.59, R 3.93, T 3.83, H 3.84, D 4.65, E 4.42
Q21: P 2, V 1.72, D 1.97, C 2.14, M 1.84, L 2.08, S 2.15, I 1.95, N 1.84, T 2.41, Y 2.29, A 2.45, R 2.28, G 2.54, F 1.87, H 2.57, K 3.06, E 3.69
N20: Q 2.84, R 2.88, F 2.71, D 3.86, T 3.19, L 2.27, C 2.63, Y 2.26, I 2.24, A 3.29, H 2.62, V 2.58, K 2.54, S 2.68, E 3.73, M 2.54, W 2.46, P 3.28, G 2.79
E18: M 2.65, I 2.4, V 2.31, G 2.02, H 2.39, S 1.88, F 2.61, A 2.82, N 2.83, Q 1.97, R 2.14, D 2.91, W 2.14, P 1.84, L 2.03, K 3.2, C 1.89, Y 1.82, T 2.23
T24: G 3.01, Y 2.57, S 3.27, H 2.99, D 3.57, I 2.69, R 2.97, M 2.4, A 2.82, W 1.69, V 2.36, C 2.91, Q 3.04, E 3.92, P 2.69, F 1.88, K 2.37, N 2.84, L 3
M23: I 2.45, H 2.8, R 3.08, V 2.71, Q 3.43, C 2.67, L 2.76, E 4.15, W 2.35, K 4.15, N 3.45, S 3.5, F 2.44, A 3.66, Y 2.77, G 3.66, T 3, P 2.87, D 4.65
